Data as given in paper PMC7854685, “Histone Parylation factor 1 contributes to the inhibition of PARP1 by cancer drugs”.

Legend:
PARP2;HPF1 = PARP2;HPF1 (Homo sapiens?;Homo sapiens?, UniProt Q9UGN5;Q9NWY4 1-583;1-346, |); assay: fluorescence polarization (release of labelled DNA on autoPARylation); 2 uM HPF1, PARPi; DNA released by 2 mM NAD+; 50 mM Tris-HCl pH 8.0, 50 mM NaCl, 1 mM MgCl2, 0.1 mM EDTA, 0.01% IGEPAL; temperature not stated; details: protein: recombinant;recombinant; (nickel column); copies: 1;1; label: fluorescein (5') in the FP DNA-release assay; blunt
PARP1;HPF1 = PARP1;HPF1 (Homo sapiens?;Homo sapiens?, UniProt P09874;Q9NWY4 1-1014;1-346, |); assay: as above; details: protein: recombinant;recombinant; (nickel column); copies: 1;1; label: fluorescein (5') in the FP DNA-release assay; blunt
PARP1 = PARP1 (UniProt P09874 1-1014); assay: fluorescence polarization (release of labelled DNA on autoPARylation); PARPi present or absent; DNA released by 2 mM NAD+, retained without NAD+; 50 mM Tris-HCl pH 8.0, 50 mM NaCl, 1 mM MgCl2, 0.1 mM EDTA, 0.01% IGEPAL; temperature not stated; details: protein: recombinant; label: fluorescein (5') in the FP DNA-release assay; blunt
PARP2 = PARP2 (UniProt Q9UGN5 1-583); assay: as above; details: protein: recombinant; label: fluorescein (5') in the FP DNA-release assay; blunt

Measured: binding result

Chain of PARP2 (Q9UGN5 whole entry): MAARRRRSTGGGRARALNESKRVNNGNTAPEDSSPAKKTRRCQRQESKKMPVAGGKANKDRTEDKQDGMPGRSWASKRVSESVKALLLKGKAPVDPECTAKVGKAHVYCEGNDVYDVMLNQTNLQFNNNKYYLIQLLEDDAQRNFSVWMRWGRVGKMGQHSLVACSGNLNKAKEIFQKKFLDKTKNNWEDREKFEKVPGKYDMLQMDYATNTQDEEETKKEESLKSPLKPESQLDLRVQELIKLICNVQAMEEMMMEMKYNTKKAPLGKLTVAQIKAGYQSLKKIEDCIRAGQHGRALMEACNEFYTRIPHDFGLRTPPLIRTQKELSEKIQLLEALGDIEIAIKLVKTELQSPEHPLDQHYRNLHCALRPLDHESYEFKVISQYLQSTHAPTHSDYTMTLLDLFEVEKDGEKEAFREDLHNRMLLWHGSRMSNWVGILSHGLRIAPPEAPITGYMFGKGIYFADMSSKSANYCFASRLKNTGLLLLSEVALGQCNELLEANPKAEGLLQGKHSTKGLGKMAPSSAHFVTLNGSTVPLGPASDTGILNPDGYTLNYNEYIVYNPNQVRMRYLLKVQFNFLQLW
Chain of PARP2;HPF1 (Q9UGN5 whole entry, chain 1 of 2): as the sequence (Q9UGN5 whole entry) above
Chain of PARP2;HPF1 (Q9NWY4 whole entry, chain 2 of 2): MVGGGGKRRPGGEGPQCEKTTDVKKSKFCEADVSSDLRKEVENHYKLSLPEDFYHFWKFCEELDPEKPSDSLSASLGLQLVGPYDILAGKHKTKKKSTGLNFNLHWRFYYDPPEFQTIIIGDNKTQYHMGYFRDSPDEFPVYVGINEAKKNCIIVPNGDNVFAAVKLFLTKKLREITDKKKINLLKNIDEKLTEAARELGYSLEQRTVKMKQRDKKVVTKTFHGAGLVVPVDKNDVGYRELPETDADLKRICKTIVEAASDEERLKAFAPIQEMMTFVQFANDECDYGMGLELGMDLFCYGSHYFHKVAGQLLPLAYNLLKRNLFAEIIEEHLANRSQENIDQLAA
Chain of PARP1 (P09874 whole entry): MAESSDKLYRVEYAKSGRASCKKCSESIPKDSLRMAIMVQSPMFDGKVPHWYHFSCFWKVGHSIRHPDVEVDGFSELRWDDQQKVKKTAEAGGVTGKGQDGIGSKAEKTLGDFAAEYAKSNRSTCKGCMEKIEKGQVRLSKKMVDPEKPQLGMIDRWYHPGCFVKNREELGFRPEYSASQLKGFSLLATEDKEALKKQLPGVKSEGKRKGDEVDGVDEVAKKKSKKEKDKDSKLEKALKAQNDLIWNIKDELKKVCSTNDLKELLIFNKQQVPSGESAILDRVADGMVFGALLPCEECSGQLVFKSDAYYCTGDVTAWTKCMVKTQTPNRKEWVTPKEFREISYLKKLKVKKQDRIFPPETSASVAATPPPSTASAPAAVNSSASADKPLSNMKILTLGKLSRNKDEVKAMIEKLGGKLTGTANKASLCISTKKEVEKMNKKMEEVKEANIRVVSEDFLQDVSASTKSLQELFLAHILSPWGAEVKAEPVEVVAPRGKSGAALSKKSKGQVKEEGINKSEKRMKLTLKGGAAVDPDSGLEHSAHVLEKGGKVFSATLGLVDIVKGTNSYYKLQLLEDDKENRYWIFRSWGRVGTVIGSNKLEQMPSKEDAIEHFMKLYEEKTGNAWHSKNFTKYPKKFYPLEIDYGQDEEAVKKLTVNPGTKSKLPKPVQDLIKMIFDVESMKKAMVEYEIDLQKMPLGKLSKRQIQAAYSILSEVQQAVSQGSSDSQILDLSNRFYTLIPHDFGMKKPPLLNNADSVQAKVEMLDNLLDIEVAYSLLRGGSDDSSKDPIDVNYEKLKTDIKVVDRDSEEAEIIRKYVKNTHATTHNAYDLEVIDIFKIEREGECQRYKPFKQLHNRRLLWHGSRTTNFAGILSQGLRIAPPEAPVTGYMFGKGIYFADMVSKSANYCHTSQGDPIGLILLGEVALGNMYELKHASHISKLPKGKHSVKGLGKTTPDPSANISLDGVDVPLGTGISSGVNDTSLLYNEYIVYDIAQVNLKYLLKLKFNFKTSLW
Chain of PARP1;HPF1 (P09874 whole entry, chain 1 of 2): as the sequence (P09874 whole entry) above
Chain of PARP1;HPF1 (Q9NWY4 whole entry, chain 2 of 2): as the sequence (Q9NWY4 whole entry, chain 2 of 2) above

B1: p18mer (dsDNA)
DNA 1: GGGTTGCGGCCGCTTGGG
DNA 2: CCCAAGCGGCCGCAACCC
modifications: 5'-phosphate
binds: PARP2;HPF1 | PARP1;HPF1 | PARP1 | PARP2
